# Results taken from patent publication US20250043022A1 (JIANGSU HENGRUI PHARMACEUTICALS, published 2025).
# Assays:
# [1] = target: T1, human PSMA on cells (Cho-hPSMA, CHO-K1 cells overexpressing full-length human PSMA) (human, UniProt Q04609 1-750); experiment: cell ELISA (OD450), Cho-hPSMA cells
# T1 construct: whole, on cells; also called cell surface PSMA; PSMA-expressing Lncap cells
# Protocol: Experiment 2: Cells were cultured and inoculated onto a cell plate using the same method as in Experiment 1. The antibodies were serially diluted, and the antibody solutions were added to the cell plate at 100 μL/well. The plate was incubated at 4° C. for 1 h and then washed. An HRP-Goat Anti-human IgG (H+L) secondary antibody dilution (1:8000) was added to the cell plate at 100 μL/well, and the plate was incubated at 4° C. for 1 h and then washed by centrifugation. After color development with TMB, the reaction was stopped with 0.1 M sulfuric acid, and OD450 values were measured.
# [2] = target: T2, human PSMA antigen (R&D SYSTEM, 4234-ZN-010) (human, UniProt Q04609 44-750); experiment: ELISA, plate-bound PSMA antigen
# T2 construct: bought antigen
# Protocol: To test the ability of the PSMA-targeting humanized antibodies of the present disclosure to bind to PSMA antigen, the ELISA method was used in this test example to measure the binding of the PSMA-targeting humanized antibodies to human PSMA antigen (purchased from R&D SYSTEM, 4234-ZN-010). The specific steps are as follows: A 96-well plate was coated with PSMA antigen at 1 μg/well and placed at 4° C. overnight. After the supernatant was discarded, the plate was blocked with 5% skim milk for 2 h. Different concentrations of humanized antibodies were prepared using 1% BSA. The initial concentration was 10 μg/mL and was serially diluted 4-fold to obtain 12 concentrations. After the blocked 96-well plate was washed twice, the […] was added, and the plate was incubated at 4° C. for 1 h. After four washes, the plate was incubated with Strepidation-HRP secondary antibody (1:10,000) at 4° C. for 1 h. After color development with TMB, the reaction was stopped with 0.1 M sulfuric acid.
# T1 sequence (Q04609 whole entry): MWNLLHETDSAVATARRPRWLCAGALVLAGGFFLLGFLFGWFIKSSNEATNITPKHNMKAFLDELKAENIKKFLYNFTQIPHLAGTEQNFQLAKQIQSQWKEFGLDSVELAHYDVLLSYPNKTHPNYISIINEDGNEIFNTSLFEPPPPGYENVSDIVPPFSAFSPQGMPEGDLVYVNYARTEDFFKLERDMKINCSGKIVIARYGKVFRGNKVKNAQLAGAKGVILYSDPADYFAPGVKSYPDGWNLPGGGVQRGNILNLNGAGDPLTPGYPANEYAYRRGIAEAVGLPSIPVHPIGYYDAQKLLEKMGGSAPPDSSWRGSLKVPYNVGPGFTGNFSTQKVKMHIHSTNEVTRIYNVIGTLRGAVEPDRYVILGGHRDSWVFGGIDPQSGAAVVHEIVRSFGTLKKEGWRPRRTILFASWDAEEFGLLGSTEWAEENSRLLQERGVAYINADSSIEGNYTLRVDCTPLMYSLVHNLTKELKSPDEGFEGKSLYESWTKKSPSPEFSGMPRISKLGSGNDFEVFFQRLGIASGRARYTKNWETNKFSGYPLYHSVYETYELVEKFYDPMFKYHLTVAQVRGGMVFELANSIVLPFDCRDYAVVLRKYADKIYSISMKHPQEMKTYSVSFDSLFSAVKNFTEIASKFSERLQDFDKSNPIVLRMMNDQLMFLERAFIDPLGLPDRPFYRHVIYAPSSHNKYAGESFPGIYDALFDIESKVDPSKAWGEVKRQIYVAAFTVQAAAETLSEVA
# T2 sequence (Q04609 44-750 limits assumed): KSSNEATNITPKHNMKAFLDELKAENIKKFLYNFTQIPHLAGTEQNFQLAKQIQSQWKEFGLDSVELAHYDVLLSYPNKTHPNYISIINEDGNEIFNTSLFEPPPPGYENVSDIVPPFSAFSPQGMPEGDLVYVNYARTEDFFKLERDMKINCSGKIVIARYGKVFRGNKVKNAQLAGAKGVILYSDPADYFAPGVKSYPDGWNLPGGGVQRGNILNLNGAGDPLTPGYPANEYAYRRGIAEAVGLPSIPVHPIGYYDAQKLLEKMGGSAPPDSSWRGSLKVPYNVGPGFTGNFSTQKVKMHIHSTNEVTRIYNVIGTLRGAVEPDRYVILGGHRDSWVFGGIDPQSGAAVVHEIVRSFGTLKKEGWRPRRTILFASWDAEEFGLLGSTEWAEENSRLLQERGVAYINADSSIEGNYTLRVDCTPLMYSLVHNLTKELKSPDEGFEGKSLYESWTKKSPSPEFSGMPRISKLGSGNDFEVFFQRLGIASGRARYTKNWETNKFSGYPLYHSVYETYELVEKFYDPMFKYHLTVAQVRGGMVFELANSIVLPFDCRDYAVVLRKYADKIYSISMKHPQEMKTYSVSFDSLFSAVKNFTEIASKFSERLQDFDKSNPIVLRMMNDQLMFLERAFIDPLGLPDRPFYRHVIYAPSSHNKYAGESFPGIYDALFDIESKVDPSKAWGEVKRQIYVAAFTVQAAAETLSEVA
Binder,EC50 [1] [µg/mL],EC50 [2] [µg/mL],Top (maximum absorbance) [2] [absorbance]
"chi73 (antibody, human IgG1, kappa, V domains shown) VH: QVQLQQSGPELVKPGASVKISCKASGYAFSTSWMNWVKERPGKGLEWIGRIYPGDGDTKYNGKFQGKATLTADKSSSTAYMKLSSLTSEDSAVYFCVRSIYYLYYFDYWGQGTTLTVSS VL: DIQMTQPTSSLSASLGDRVTISCSTSQDIYNNLSWFQQKPDGTVRLLIYYTSSLHSGVPSRFSGSGSGTDYSLTISNLEPEDIATYYCQQYNNLPFTFGGGTNLEIRR",–,0.029,2.08
"hu2H1L1 (antibody, human IgG1, kappa, V domains shown) VH: EVQLVESGGGLVQPGGSLRLSCAASGFTFSDYYMAWVRQAPGKGLEWVANINFDGSSTYYLDSLKSRFTISRDNAKNSLYLQMNSLRAEDTAVYYCARDLDGYYGYFDVWGQGTTVTVSS VL: EIVLTQSPDFQSVTPKEKVTITCSASSSVSHMYWYQQKPDQSPKLLIYRTSNLASGVPSRFSGSGSGTDFTLTINSLEAEDAATYYCQQYHSYPLMFGQGTKLEIKR",–,0.0354,0.975
"hu27H1L6 (antibody, human IgG1, kappa) heavy: not shown light: QIVLTQSPDFQSVTPKEKVTIQCSASSSVSYMYWYQQKPDQSPKPWIYRTSNLASGVPSRFSGSGSGTDYTLTINSLEAEDAATYYCQQYHSYPLTFGQGTKLEIKRTVAAPSVFIFPPSDEQLKSGTASVVCLLNNFYPREAKVQWKVDNALQSGNSQESVTEQDSKDSTYSLSSTLTLSKADYEKHKVYACEVTHQGLSSPVTKSFNRGEC",2.77,0.398,0.553
"Chi31 (antibody, human IgG1, kappa, V domains shown) VH: EVKLVESEGGLVQPGSSKKLSCTASGFTFSDYYMAWVRQVPEKGLEWVASINYDGSSTYYLDSLKSRFIISRDNAKNNLYLQMNSLKSEDTATYYCAGSDGYWAWFAYWGQGTLVTVSA VL: DIQMTQSPASLSASVGEAVTITCRASGNIHNYLAWYQQKQGKSPQLLVYNAETLADGVPSRFSGSGSGTQFSLKINSLRPEDFGSYYCQHFWSTPPTFGGGTKLEIKR",0.141,–,–
"hu15H4L2 (antibody, human IgG1, kappa, V domains shown) VH: EFQLVQSGAEVKKPGASVKVSCKASGYSFTDHNMNWVRQAPGQRLEWMGLINPNYGTADYNQKFKGRVTLTVDQSATTAYMELSSLRSEDTAVYYCARGSSLFAYWGQGTLVTVSS VL: DIQMTQSPSSLSASVGDRVTITCKASQGVDTAVAWYQQKPGKSPKLLIYWASTRHTGVPDRFSGSGSGTDFTLTISSLQPEDVATYYCQQYSRYPLTFGQGTKLEIKR",0.0795,0.0421,2.23
"hu27H1L2 (antibody, human IgG1, kappa) heavy: not shown light: EIVLTQSPDFQSVTPKEKVTITCSASSSVSYMYWYQQKPDQSPKPWIYRTSNLASGVPSRFSGSGSGTDYTLTINSLEAEDAATYYCQQYHSYPLTFGQGTKLEIKRTVAAPSVFIFPPSDEQLKSGTASVVCLLNNFYPREAKVQWKVDNALQSGNSQESVTEQDSKDSTYSLSSTLTLSKADYEKHKVYACEVTHQGLSSPVTKSFNRGEC",1.65,–,–
"hu27H1L4 (antibody, human IgG1, kappa) heavy: not shown light: EIVLTQSPDFQSVTPKEKVTIQCSASSSVSYMYWYQQKPDQSPKPWIYRTSNLASGVPSRFSGSGSGTDFTLTINSLEAEDAATYYCQQYHSYPLTFGQGTKLEIKRTVAAPSVFIFPPSDEQLKSGTASVVCLLNNFYPREAKVQWKVDNALQSGNSQESVTEQDSKDSTYSLSSTLTLSKADYEKHKVYACEVTHQGLSSPVTKSFNRGEC",1.73,–,–
"hu27H1L1 (antibody, human IgG1, kappa) heavy: not shown light: EIVLTQSPDFQSVTPKEKVTITCSASSSVSYMYWYQQKPDQSPKPWIYRTSNLASGVPSRFSGSGSGTDFTLTINSLEAEDAATYYCQQYHSYPLTFGQGTKLEIKRTVAAPSVFIFPPSDEQLKSGTASVVCLLNNFYPREAKVQWKVDNALQSGNSQESVTEQDSKDSTYSLSSTLTLSKADYEKHKVYACEVTHQGLSSPVTKSFNRGEC",1.17,–,–
"hu27H1L3 (antibody, human IgG1, kappa) heavy: not shown light: QIVLTQSPDFQSVTPKEKVTITCSASSSVSYMYWYQQKPDQSPKPWIYRTSNLASGVPSRFSGSGSGTDYTLTINSLEAEDAATYYCQQYHSYPLTFGQGTKLEIKRTVAAPSVFIFPPSDEQLKSGTASVVCLLNNFYPREAKVQWKVDNALQSGNSQESVTEQDSKDSTYSLSSTLTLSKADYEKHKVYACEVTHQGLSSPVTKSFNRGEC",1.4,–,–
"hu27H1L5 (antibody, human IgG1, kappa) heavy: not shown light: EIVLTQSPDFQSVTPKEKVTIQCSASSSVSYMYWYQQKPDQSPKPWIYRTSNLASGVPSRFSGSGSGTDYTLTINSLEAEDAATYYCQQYHSYPLTFGQGTKLEIKRTVAAPSVFIFPPSDEQLKSGTASVVCLLNNFYPREAKVQWKVDNALQSGNSQESVTEQDSKDSTYSLSSTLTLSKADYEKHKVYACEVTHQGLSSPVTKSFNRGEC",2.39,–,–

# Now from value to binder:
EC50 [1] [µg/mL],EC50 [2] [µg/mL],Top (maximum absorbance) [2] [absorbance],Binder
0.0202,0.0365,1.67,"hu46H2L2 (antibody, human IgG1, kappa, V domains shown) VH: EVQLVESGGGLVKPGGSLRLSCAASGFTFSNYGMSWVRQAPGKGLEWVSTIGSGGGYTYYSDSVKGRFTISRDNAKNSLYLQMNSLRAEDTAVYYCVRHPQIGYWGQGTLVTVSS VL: DIQMTQSPSSLSASVGDRVTITCKASQSVGTAVAWYQQKPGKAPKLLIYSASSRYTGVPSRFSGSGSGTDFTLTISSLQPEDFADYFCHQYSSYPLTFGGGTKVEIKR"
0.11,–,–,"hu71H1L2 (antibody, human IgG1, kappa) heavy: not shown light: DVVVTQTPLSLPVTPGEPASISCRSSQSLVHSYGNTYLHWYLQKPGQSPQLLIYKVSNRFSGVPDRFSGSGSGTDFTLKISRVEAEDVGVYYCSQTTHVPWTFGGGTKVEIKRTVAAPSVFIFPPSDEQLKSGTASVVCLLNNFYPREAKVQWKVDNALQSGNSQESVTEQDSKDSTYSLSSTLTLSKADYEKHKVYACEVTHQGLSSPVTKSFNRGEC"
0.116,–,–,"hu71H2L2 (antibody, human IgG1, kappa) heavy: not shown light: DVVVTQTPLSLPVTPGEPASISCRSSQSLVHSYGNTYLHWYLQKPGQSPQLLIYKVSNRFSGVPDRFSGSGSGTDFTLKISRVEAEDVGVYYCSQTTHVPWTFGGGTKVEIKRTVAAPSVFIFPPSDEQLKSGTASVVCLLNNFYPREAKVQWKVDNALQSGNSQESVTEQDSKDSTYSLSSTLTLSKADYEKHKVYACEVTHQGLSSPVTKSFNRGEC"
0.101,–,–,"hu71H4L1 (antibody, human IgG1, kappa) heavy: not shown light: DIVMTQTPLSLPVTPGEPASISCRSSQSLVHSYGNTYLHWYLQKPGQSPQLLIYKVSNRFSGVPDRFSGSGSGTDFTLKISRVEAEDVGVYYCSQTTHVPWTFGGGTKVEIKRTVAAPSVFIFPPSDEQLKSGTASVVCLLNNFYPREAKVQWKVDNALQSGNSQESVTEQDSKDSTYSLSSTLTLSKADYEKHKVYACEVTHQGLSSPVTKSFNRGEC"
0.0867,–,–,"hu71H4L2 (antibody, human IgG1, kappa) heavy: not shown light: DVVVTQTPLSLPVTPGEPASISCRSSQSLVHSYGNTYLHWYLQKPGQSPQLLIYKVSNRFSGVPDRFSGSGSGTDFTLKISRVEAEDVGVYYCSQTTHVPWTFGGGTKVEIKRTVAAPSVFIFPPSDEQLKSGTASVVCLLNNFYPREAKVQWKVDNALQSGNSQESVTEQDSKDSTYSLSSTLTLSKADYEKHKVYACEVTHQGLSSPVTKSFNRGEC"
0.0631,–,–,"hu71H2L1 (antibody, human IgG1, kappa) heavy: not shown light: DIVMTQTPLSLPVTPGEPASISCRSSQSLVHSYGNTYLHWYLQKPGQSPQLLIYKVSNRFSGVPDRFSGSGSGTDFTLKISRVEAEDVGVYYCSQTTHVPWTFGGGTKVEIKRTVAAPSVFIFPPSDEQLKSGTASVVCLLNNFYPREAKVQWKVDNALQSGNSQESVTEQDSKDSTYSLSSTLTLSKADYEKHKVYACEVTHQGLSSPVTKSFNRGEC"
1.1,0.61,0.421,"hu41H2L2 (antibody, human IgG1, kappa, V domains shown) VH: EVQLVQSGAEVKKPGASVKVSCKASGYTFTSYGISWVRQAPGQGLEWMGEIFPRRGNTYYNEKFRGRVTLTADKSTSTAYMELRSLRSDDTAVYYCARVFDGYYNYAMDYWGQGTTVTVSS VL: DIQMTQSPSSLSASVGDRVTITCRASQDIGSSLNWLQQKPGKAIKRLIYATSSLDSGVPSRFSGSRSGTDYTLTISSLQPEDFATYYCLQYASSPYTFGGGTKVEIKR"
0.142,0.0864,1.76,"hu31H1L1 (antibody, human IgG1, kappa, V domains shown) VH: EVQLVESGGGLVQPGGSLRLSCAASGFTFSDYYMAWVRQAPGKGLEWVASINYDGSSTYYLDSLKSRFTISRDNAKNSLYLQMNSLRAEDTAVYYCAGSDGYWAWFAYWGQGTLVTVSS VL: DIQMTQSPSSLSASVGDRVTITCRASGNIHNYLAWYQQKPGKAPKLLIYNAETLADGVPSRFSGSGSGTDFTLTISSLQPEDFATYYCQHFWSTPPTFGGGTKVEIKR"
4.03,1.06,0.245,"hu43H3L2 (antibody, human IgG1, kappa, V domains shown) VH: EVQFVESGGGLVQPGGSLRLSCAASGFTFSNYWMNWLRQAPGKGLEWVAQVRLKSDNYATHYAESVKGRFTISREDAKNSAYLQMNSLRAEDTAVYYCSENYYGPAGPFDFWGQGTTVTVSS VL: DIQMTQSPSSLSASVGDRVTITCKASQNVHTSVAWYQQKPGKSPKLLIYSASNRYSGVPSRFSGSGSGTDFTLTISSLQPEDVATYYCQQYSSYPLTFGQGTKLEIKR"
